Earlier results in patent US20220223299A1, “METHODS AND APPARATUSES FOR MODELING, SIMULATING, AND TREATING HEREDITARY ANGIOEDEMA” (Takeda Pharmaceutical Company Limited, priority 2019, published 2022).
Blank lines part the entries; values can stand above or below the molecule they belong to.

Key:
KAL (kallikrein) = target: T1, KAL (kallikrein) (Homo sapiens, UniProt P03952); settings: KAL in plasma, KAL_HMWK in plasma and KAL_HMWK_gC1qR
T1 construct: The preKAL is cleaved by FXIIa resulting in KAL, the two-chain enzyme kallikrein

FXIIa = target: T2, FXIIa (Homo sapiens, UniProt P00748); settings: FXIIa in plasma and FXIIa_gC1qR
T2 sequence (P00748 20-372 partner limits assumed): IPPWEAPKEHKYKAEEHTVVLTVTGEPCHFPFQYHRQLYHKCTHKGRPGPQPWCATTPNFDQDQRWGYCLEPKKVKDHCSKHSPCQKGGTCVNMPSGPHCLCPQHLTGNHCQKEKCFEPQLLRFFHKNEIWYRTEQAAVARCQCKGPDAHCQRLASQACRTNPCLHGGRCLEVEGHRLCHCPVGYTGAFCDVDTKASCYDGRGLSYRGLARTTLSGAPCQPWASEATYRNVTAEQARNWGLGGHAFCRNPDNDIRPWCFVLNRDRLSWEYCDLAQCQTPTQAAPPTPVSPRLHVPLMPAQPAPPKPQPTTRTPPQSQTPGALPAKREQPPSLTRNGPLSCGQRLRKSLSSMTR
T2 sequence (P00748 373-615 limits assumed): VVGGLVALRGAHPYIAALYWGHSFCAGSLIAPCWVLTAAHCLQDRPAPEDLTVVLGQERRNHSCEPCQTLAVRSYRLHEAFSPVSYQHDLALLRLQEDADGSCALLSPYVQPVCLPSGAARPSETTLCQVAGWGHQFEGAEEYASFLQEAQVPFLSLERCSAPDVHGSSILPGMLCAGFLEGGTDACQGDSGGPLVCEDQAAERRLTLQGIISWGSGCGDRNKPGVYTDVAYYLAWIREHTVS

[1] = in vivo
KAL (plasma kallikrein) = target: T3, KAL (plasma kallikrein) (Homo sapiens, UniProt P03952); settings: KAL in plasma, KAL_HMWK in plasma and KAL_HMWK_gC1qR
T3 construct: The preKAL is cleaved by FXIIa resulting in KAL, the two-chain enzyme kallikrein
T3 sequence (P03952 20-390 partner limits assumed): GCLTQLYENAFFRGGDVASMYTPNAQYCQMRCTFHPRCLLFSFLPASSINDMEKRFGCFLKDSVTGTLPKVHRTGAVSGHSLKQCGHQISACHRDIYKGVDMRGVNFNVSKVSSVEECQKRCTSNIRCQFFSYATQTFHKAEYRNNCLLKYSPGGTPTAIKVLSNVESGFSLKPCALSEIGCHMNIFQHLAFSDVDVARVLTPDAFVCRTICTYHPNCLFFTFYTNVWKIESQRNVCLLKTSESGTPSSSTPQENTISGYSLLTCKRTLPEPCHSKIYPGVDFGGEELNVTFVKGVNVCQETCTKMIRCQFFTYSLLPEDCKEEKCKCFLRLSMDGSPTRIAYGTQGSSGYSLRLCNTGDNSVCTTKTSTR
T3 sequence (P03952 391-638 limits assumed): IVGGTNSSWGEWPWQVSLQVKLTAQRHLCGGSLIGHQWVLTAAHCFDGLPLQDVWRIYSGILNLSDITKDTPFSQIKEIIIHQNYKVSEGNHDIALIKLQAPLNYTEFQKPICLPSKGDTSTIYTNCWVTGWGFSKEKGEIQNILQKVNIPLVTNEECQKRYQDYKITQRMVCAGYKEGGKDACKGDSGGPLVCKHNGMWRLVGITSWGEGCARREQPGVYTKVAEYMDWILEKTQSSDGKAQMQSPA

T1 sequence (P03952 20-390 partner limits assumed): as the sequence (P03952 20-390 partner limits assumed) above
T1 sequence (P03952 391-638 limits assumed): as the sequence (P03952 391-638 limits assumed) above

koff_C1Inh_KAL (KAL (kallikrein)): 0.00255 s⁻¹
kon_C1Inh_KAL (KAL (kallikrein)): 17000 M⁻¹ s⁻¹
Kd (KAL (kallikrein); read-out: Kd_C1Inh_KAL): 0.15 µM
koff_C1Inh_FXIIa (FXIIa): 0.06364 s⁻¹
kon_C1Inh_FXIIa (FXIIa): 37000 M⁻¹ s⁻¹
Kd (FXIIa; read-out: Kd_C1Inh_FXIIa): 1.72 µM
Molecule: C1Inh: C1 inhibitor protein; binds to and inhibits both Factor XIIa and kallikrein
kdeg_C1Inh, degradation rate for C1Inh (vascular space): 4.58e-06 s⁻¹
kdeg_Bound_C1Inh, degradation rate for bound C1Inh (vascular space, bound C1Inh): 0.0038508 s⁻¹

koff_KAL_Lanadelumab (KAL (plasma kallikrein)): 0.0004033 s⁻¹
kon_KAL_Lanadelumab (KAL (plasma kallikrein)): 3.36e+06 M⁻¹ s⁻¹
Kd (KAL (plasma kallikrein); read-out: Kd_KAL_Lanadelumab): 0.00012 µM
B1: Lanadelumab: fully human IgG1 recombinant monoclonal antibody inhibitor of activated plasma kallikrein (antibody, chains of the INN, looked up, V domains shown)
VH: EVQLLESGGGLVQPGGSLRLSCAASGFTFSHYIMMWVRQAPGKGLEWVSGIYSSGGITVYADSVKGRFTISRDNSKNTLYLQMNSLRAEDTAVYYCAYRRIGVPRRDEFDIWGQGTMVTVSS
VL: DIQMTQSPSTLSASVGDRVTITCRASQSISSWLAWYQQKPGKAPKLLIYKASTLESGVPSRFSGSGSGTEFTLTISSLQPDDFATYYCQQYNTYWTFGQGTKVEIK
kdeg Lanadelumab KAL HMWK gC1qR, degradation rate for Lanadelumab bound with KAL HMWK gC1qR receptor complex (proximal space): 9.63e-05 s⁻¹
half-life [1]: 14 days
